Test results as given in patent publication US20040038338A1, “Influence of LRP cytoplasmic domain on Abeta production” (priority 2001, published 2004).

T1: Fe65 (UniProt O00213 1-710, limits assumed)
T1 construct: also called Fe65 adaptor protein; in vitro translated Fe65
T1 sequence (looked up): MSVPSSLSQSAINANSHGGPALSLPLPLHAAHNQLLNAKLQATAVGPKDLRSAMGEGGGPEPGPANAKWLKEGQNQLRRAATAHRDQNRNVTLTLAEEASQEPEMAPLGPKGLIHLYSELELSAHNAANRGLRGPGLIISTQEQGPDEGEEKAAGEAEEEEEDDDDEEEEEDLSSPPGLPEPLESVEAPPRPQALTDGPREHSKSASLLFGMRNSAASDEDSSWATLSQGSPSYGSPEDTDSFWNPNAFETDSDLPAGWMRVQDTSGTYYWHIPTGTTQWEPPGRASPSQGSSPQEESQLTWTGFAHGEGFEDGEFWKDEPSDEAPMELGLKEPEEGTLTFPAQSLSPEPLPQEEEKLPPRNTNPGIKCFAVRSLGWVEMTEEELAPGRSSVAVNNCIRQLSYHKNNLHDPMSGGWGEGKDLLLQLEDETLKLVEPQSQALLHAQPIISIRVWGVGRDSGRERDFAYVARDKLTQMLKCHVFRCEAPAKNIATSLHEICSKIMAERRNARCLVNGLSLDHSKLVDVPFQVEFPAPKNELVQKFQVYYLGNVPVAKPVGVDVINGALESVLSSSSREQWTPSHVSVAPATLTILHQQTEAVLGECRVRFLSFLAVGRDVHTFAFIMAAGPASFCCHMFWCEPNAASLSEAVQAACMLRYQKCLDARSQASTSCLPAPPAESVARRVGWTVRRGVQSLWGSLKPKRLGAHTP


Columns and labels:
APP processing = assay: Overexpression of Fe65 in APP751-transfected CHO cells, APPs and Aβ; assay type: cell-based; details: preliminary studies
From the text: In the second set of experiments, Inventors determine whether overexpression of Fe65 impairs APP and LRP processing by acting as a dominant or competitive negative mutant. Inventors briefly mentioned the preliminary results above with APPs and Aβ when Fe65 was overexpressed in APP75 1-transfected CHO cells. These studies are repeated for reliable quantitation and other aspects of APP trafficking are examined, as performed in the earlier aims. Inventors also assess the binding and uptake of LRP ligands. To ascertain that these outcomes are due to inhibition by Fe65, Inventors overexpress Fe65 mutants that cannot bind either APP or LRP, i.e., ΔPID2 and ΔPID 1, respectively. If these mutant constructs mimic the results from full length Fe65 even though it cannot bind it's known substrate, then it supports the idea that Fe65 or Fe65L in excess behaves as an inhibitor. […] The premise is that an overabundance of Fe65 result in the failure to link up limiting amounts of LRP with APP. Thus, co-expression of Fe65 with LRP should greatly diminish the effects of Fe65 expressed by itself In the third set of experiments, Inventors test the concept that other APP and LRP interacting proteins with only single binding sites, such as mDab, X11/Mint-1 and JIP-1, compete for binding with Fe65 or Fe65L, and by displacing Fe65, produce a partial loss of function with respect to APP processing. […]

Fe65 = molecular target: T1, Fe65; assay: GST pull down of in vitro translated Fe65
Aβ release = details: exogenous RAP, cells overexpressing APP751; cited from earlier work

| Molecule | reduction of binding against wild type LRP (Fe65) [%] | also measured |
| --- | --- | --- |
| Fe65: cytosolic adaptor protein with separate binding domains (PID1, PID2) for LRP and APP, overexpressed in cells (protein) MSVPSSLSQSAINANSHGGPALSLPLPLHAAHNQLLNAKLQATAVGPKDLRSAMGEGGGPEPGPANAKWLKEGQNQLRRAATAHRDQNRNVTLTLAEEASQEPEMAPLGPKGLIHLYSELELSAHNAANRGLRGPGLIISTQEQGPDEGEEKAAGEAEEEEEDDDDEEEEEDLSSPPGLPEPLESVEAPPRPQALTDGPREHSKSASLLFGMRNSAASDEDSSWATLSQGSPSYGSPEDTDSFWNPNAFETDSDLPAGWMRVQDTSGTYYWHIPTGTTQWEPPGRASPSQGSSPQEESQLTWTGFAHGEGFEDGEFWKDEPSDEAPMELGLKEPEEGTLTFPAQSLSPEPLPQEEEKLPPRNTNPGIKCFAVRSLGWVEMTEEELAPGRSSVAVNNCIRQLSYHKNNLHDPMSGGWGEGKDLLLQLEDETLKLVEPQSQALLHAQPIISIRVWGVGRDSGRERDFAYVARDKLTQMLKCHVFRCEAPAKNIATSLHEICSKIMAERRNARCLVNGLSLDHSKLVDVPFQVEFPAPKNELVQKFQVYYLGNVPVAKPVGVDVINGALESVLSSSSREQWTPSHVSVAPATLTILHQQTEAVLGECRVRFLSFLAVGRDVHTFAFIMAAGPASFCCHMFWCEPNAASLSEAVQAACMLRYQKCLDARSQASTSCLPAPPAESVARRVGWTVRRGVQSLWGSLKPKRLGAHTP | – | APPs secretion (APP processing): augmented; Aβ release (APP processing): reduction |
| GST fusion protein of the LRP cytoplasmic tail with a single alanine substitution at L of the YATL motif (other, not shown: a dimerising Fc or GST; small tags and cut ends, N-terminal GST fusion, not carried in the letters, Position 4510 is derived from the motif's printed limits (4504 to 4510)) KRRVQGAKGFQHQRMTNGAMNVEIGNPTYKMYEGGEPDDVGGLLDADFALDPDKPTNFTNPVYATAYMGGHGSRHSLASTDEKRELLGRGPEDEIGDPLA | > 50 | – |
| RAP: 39 kDa receptor associated protein, an LRP chaperone molecule that blocks binding of all known LRP ligands (protein, UniProt P30533 35-357, looked up) Alpha-2-macroglobulin …: YSREKNQPKPSPKRESGEEFRMEKLNQLWEKAQRLHLPPVRLAELHADLKIQERDELAWKKLKLDGLDEDGEKEARLIRNLNVILAKYGLDGKKDARQVTSNSLSGTQEDGLDDPRLEKLWHKAKTSGKFSGEELDKLWREFLHHKEKVHEYNVLLETLSRTEEIHENVISPSDLSDIKGSVLHSRHTELKEKLRSINQGLDRLRRVSHQGYSTEAEFEEPRVIDLWDLAQSANLTDKELEAFREELKHFEAKIEKHNHYQKQLEIAHEKLRHAESVGDGERVSRSREKHALLEGRTKELGYTVKKHLQDLSGRISRARHNEL | – | Aβ release (Aβ release): dramatically reduced |

Second part, led by results:

| reduction of binding against wild type LRP (Fe65) [%] | Molecule | also measured |
| --- | --- | --- |
| > 50 | GST fusion protein of the LRP cytoplasmic tail with a single alanine substitution at N of the second NPXY motif (other, not shown: a dimerising Fc or GST; small tags and cut ends, N-terminal GST fusion, not carried in the letters, Position 4504 is derived from the motif's printed limits (4504 to 4510)) KRRVQGAKGFQHQRMTNGAMNVEIGNPTYKMYEGGEPDDVGGLLDADFALDPDKPTNFTAPVYATLYMGGHGSRHSLASTDEKRELLGRGPEDEIGDPLA | – |
| > 50 | GST fusion protein of the LRP cytoplasmic tail with a single alanine substitution at Y of the second NPXY motif (other, not shown: a dimerising Fc or GST; small tags and cut ends, N-terminal GST fusion, not carried in the letters) KRRVQGAKGFQHQRMTNGAMNVEIGNPTYKMYEGGEPDDVGGLLDADFALDPDKPTNFTNPVAATLYMGGHGSRHSLASTDEKRELLGRGPEDEIGDPLA | – |
